Assay results taken from the supplement of paper PMC9428881.
± gives the standard error.

Test: background-corrected fluorescence of 3'-dye-labeled ssDNA relative to brightest sequence (3'-GCGCG) (fraction); higher = brighter dye fluorescence (less quenching)
Method in brief: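 Light-directed phosphoramidite synthesis on glass slides produced single-stranded DNA carrying a 3' Cy3 or Cy5 dye next to each of 1024 permuted pentamers. After a 2 h acetonitrile wash at r.t., arrays were scanned at 532 or 635 nm both before and after overnight deprotection in ethylenediamine/ethanol. Every value is the mean of 10 features per array over at least 3 syntheses. Fluorescence had unlabeled-oligo background subtracted and was scaled to the brightest sequence.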

Sequence	background-corrected fluorescence (dye: Cy3 (3' terminal))	background-corrected fluorescence (dye: Cy5 (3' terminal))
TTTTTTCATGATGAGCATCATTTTTTTTTTTTTTTGCCTG [GTCCG]	0.481 ± 0.028	0.35 ± 0.021
TTTTTTCATCATGCGCATGCTTTTTTTTTTTTTTTGGATA [ATAGG]	0.582 ± 0.026	0.479 ± 0.045
TTTTTGCATCAGCATCATGCTTTTTTTTTTTTTTTTGTGA [AGTGT]	0.68 ± 0.026	0.564 ± 0.039
TTTTTTGATCATGAGCATGATTTTTTTTTTTTTTTCGCTC [CTCGC]	0.452 ± 0.039	0.318 ± 0.024
TTTTTGCATGATGATGATGCTTTTTTTTTTTTTTTTCCCA [ACCCT]	0.441 ± 0.036	0.346 ± 0.035
TTTTTTCATGCTGATCATGATTTTTTTTTTTTTTTGACGC [CGCAG]	0.577 ± 0.062	0.462 ± 0.065
TTTTTGCATGCTCAGCAGCATTTTTTTTTTTTTTTTAGTT [TTGAT]	0.592 ± 0.023	0.411 ± 0.032
TTTTTTGCTGCTGCTGATGATTTTTTTTTTTTTTTAAACC [CCAAA]	0.403 ± 0.035	0.29 ± 0.015
TTTTTTGAGCAGCATCATCATTTTTTTTTTTTTTTCTTGG [GGTTC]	0.631 ± 0.038	0.47 ± 0.05
TTTTTTGATCATCATGCTCATTTTTTTTTTTTTTTCGGAG [GAGGC]	0.603 ± 0.02	0.487 ± 0.024
TTTTTGCAGCAGCATCATGCTTTTTTTTTTTTTTTTTTGA [AGTTT]	0.634 ± 0.029	0.524 ± 0.03
TTTTTGCATGATCATCATCATTTTTTTTTTTTTTTTCGGG [GGGCT]	0.664 ± 0.02	0.558 ± 0.044
TTTTTTGATGCTGATCAGCATTTTTTTTTTTTTTTCACGT [TGCAC]	0.588 ± 0.034	0.473 ± 0.03
TTTTTTGCTGCTCATCATGCTTTTTTTTTTTTTTTAAGGA [AGGAA]	0.779 ± 0.02	0.635 ± 0.045
TTTTTTCATGAGCAGCATGATTTTTTTTTTTTTTTGCTTC [CTTCG]	0.388 ± 0.041	0.285 ± 0.024
TTTTTTGCTGATGCGCATCATTTTTTTTTTTTTTTACATG [GTACA]	0.519 ± 0.03	0.409 ± 0.023
TTTTTGCATCAGCATGATGCTTTTTTTTTTTTTTTTGTCA [ACTGT]	0.487 ± 0.069	0.439 ± 0.08
TTTTTTCATCAGCATGCGCATTTTTTTTTTTTTTTGGTAT [TATGG]	0.525 ± 0.017	0.411 ± 0.025
TTTTTTCATGATCATCATCATTTTTTTTTTTTTTTGCGGG [GGGCG]	0.701 ± 0.013	0.563 ± 0.045
TTTTTGCATCAGCATGATGATTTTTTTTTTTTTTTTGTCC [CCTGT]	0.401 ± 0.014	0.289 ± 0.018
TTTTTTCATGCGCATGCTCATTTTTTTTTTTTTTTGATAG	0.526 ± 0.03	0.425 ± 0.049
TTTTTTGATCATGCTCAGCATTTTTTTTTTTTTTTCGAGT [TGAGC]	0.684 ± 0.026	0.477 ± 0.058
TTTTTGCATGCTGATGCTGCTTTTTTTTTTTTTTTTACAA [AACAT]	0.538 ± 0.025	0.433 ± 0.059

Sequence	background-corrected fluorescence (dye: Cy3 (3' terminal))	background-corrected fluorescence (dye: Cy5 (3' terminal))
TTTTTGCATGCGCATCATCATTTTTTTTTTTTTTTTATGG [GGTAT]	0.576 ± 0.011	0.467 ± 0.023
TTTTTTGCTGATGAGCATCATTTTTTTTTTTTTTTACCTG [GTCCA]	0.499 ± 0.023	0.384 ± 0.02
TTTTTTCATCAGCAGCATGCTTTTTTTTTTTTTTTGGTTA [ATTGG]	0.53 ± 0.015	0.446 ± 0.071
TTTTTTGAGCATGATGATCATTTTTTTTTTTTTTTCTCCG [GCCTC]	0.531 ± 0.02	0.426 ± 0.028
TTTTTGCAGCATGCTGAGCATTTTTTTTTTTTTTTTTACT [TCATT]	0.49 ± 0.013	0.361 ± 0.047
TTTTTTCATGATGCTGCTCATTTTTTTTTTTTTTTGCAAG [GAACG]	0.503 ± 0.04	0.422 ± 0.029
TTTTTTCATCATCATGATGCTTTTTTTTTTTTTTTGGGCA [ACGGG]	0.565 ± 0.022	0.505 ± 0.024
TTTTTTGATGCTCATGCTCATTTTTTTTTTTTTTTCAGAG [GAGAC]	0.595 ± 0.022	0.462 ± 0.03
TTTTTTGCGCATGATGCGCATTTTTTTTTTTTTTTATCAT [TACTA]	0.511 ± 0.02	0.408 ± 0.028
TTTTTTCATGATGCTGCTGCTTTTTTTTTTTTTTTGCAAA [AAACG]	0.599 ± 0.028	0.497 ± 0.03
TTTTTTCAGCATGATGCTCATTTTTTTTTTTTTTTGTCAG [GACTG]	0.546 ± 0.028	0.404 ± 0.051
TTTTTTGCTCATCATCATCATTTTTTTTTTTTTTTAGGGG [GGGGA]	0.69 ± 0.019	0.591 ± 0.028
TTTTTTGAGCATGCTGCGCATTTTTTTTTTTTTTTCTAAT [TAATC]	0.542 ± 0.015	0.394 ± 0.027
TTTTTTGATCATCAGCATGCTTTTTTTTTTTTTTTCGGTA [ATGGC]	0.589 ± 0.071	0.488 ± 0.029
TTTTTGCAGCATCATGCTGCTTTTTTTTTTTTTTTTTGAA [AAGTT]	0.634 ± 0.019	0.527 ± 0.03
TTTTTGCATGATCATGCGCATTTTTTTTTTTTTTTTCGAT [TAGCT]	0.64 ± 0.011	0.441 ± 0.022
TTTTTTGCTGCTGCTGATGCTTTTTTTTTTTTTTTAAACA [ACAAA]	0.51 ± 0.039	0.407 ± 0.023
TTTTTGCATGAGCATGAGCATTTTTTTTTTTTTTTTCTCT	0.464 ± 0.014	0.332 ± 0.024
TTTTTGCAGCATGCGCATCATTTTTTTTTTTTTTTTTATG [GTATT]	0.467 ± 0.015	0.366 ± 0.024
TTTTTTCATGATCAGCATCATTTTTTTTTTTTTTTGCGTG [GTGCG]	0.577 ± 0.012	0.439 ± 0.023
TTTTTTGATCATGATGCGCATTTTTTTTTTTTTTTCGCAT [TACGC]	0.517 ± 0.0084	0.395 ± 0.021
TTTTTGCATGATGATGAGCATTTTTTTTTTTTTTTTCCCT	0.472 ± 0.027	0.317 ± 0.026
TTTTTTGCTGAGCAGCATCATTTTTTTTTTTTTTTACTTG [GTTCA]	0.503 ± 0.019	0.4 ± 0.024

Sequence	background-corrected fluorescence (dye: Cy3 (3' terminal))	background-corrected fluorescence (dye: Cy5 (3' terminal))
TTTTTTGATGCTCAGCATGATTTTTTTTTTTTTTTCAGTC [CTGAC]	0.477 ± 0.0054	0.373 ± 0.086
TTTTTTGATGATCAGCATGATTTTTTTTTTTTTTTCCGTC [CTGCC]	0.442 ± 0.019	0.345 ± 0.018
TTTTTGCATCATGCTGATGCTTTTTTTTTTTTTTTTGACA [ACAGT]	0.527 ± 0.019	0.411 ± 0.026
TTTTTTGATCATGCTGATGCTTTTTTTTTTTTTTTCGACA [ACAGC]	0.512 ± 0.028	0.429 ± 0.053
TTTTTGCAGCAGCATGATGCTTTTTTTTTTTTTTTTTTCA [ACTTT]	0.482 ± 0.032	0.373 ± 0.046
TTTTTTGATGCGCATCATCATTTTTTTTTTTTTTTCATGG [GGTAC]	0.6391 ± 0.0053	0.521 ± 0.075
TTTTTGCATCATCAGCAGCATTTTTTTTTTTTTTTTGGTT	0.624 ± 0.019	0.477 ± 0.037
TTTTTGCATGATCAGCATGCTTTTTTTTTTTTTTTTCGTA	0.59 ± 0.023	0.457 ± 0.043
TTTTTTGCGCATCATGCTGCTTTTTTTTTTTTTTTATGAA [AAGTA]	0.594 ± 0.017	0.51 ± 0.053
TTTTTTCATCAGCATGATGATTTTTTTTTTTTTTTGGTCC [CCTGG]	0.404 ± 0.0089	0.317 ± 0.03
TTTTTTCATGATCATGCTGCTTTTTTTTTTTTTTTGCGAA [AAGCG]	0.666 ± 0.028	0.525 ± 0.028
TTTTTTGCTGATGAGCATGATTTTTTTTTTTTTTTACCTC [CTCCA]	0.438 ± 0.0039	0.271 ± 0.016
TTTTTGCATGATCATGCTGCTTTTTTTTTTTTTTTTCGAA [AAGCT]	0.632 ± 0.0073	0.524 ± 0.043
TTTTTTGCTGCGCATCATGCTTTTTTTTTTTTTTTAATGA [AGTAA]	0.634 ± 0.032	0.524 ± 0.03
TTTTTTCATCAGCATCATGCTTTTTTTTTTTTTTTGGTGA [AGTGG]	0.627 ± 0.026	0.555 ± 0.04
TTTTTGCATCATGCTGCTGATTTTTTTTTTTTTTTTGAAC [CAAGT]	0.461 ± 0.024	0.345 ± 0.021
TTTTTTGATGCGCATGCTGCTTTTTTTTTTTTTTTCATAA [AATAC]	0.529 ± 0.021	0.428 ± 0.022
TTTTTGCAGCATGCTCATGCTTTTTTTTTTTTTTTTTAGA [AGATT]	0.6442 ± 0.0061	0.531 ± 0.036
TTTTTGCATCATGATCATGATTTTTTTTTTTTTTTTGCGC [CGCGT]	0.596 ± 0.02	0.48 ± 0.034
TTTTTTGATGAGCATCAGCATTTTTTTTTTTTTTTCCTGT [TGTCC]	0.584 ± 0.0059	0.459 ± 0.038
TTTTTTCATGCGCATGATGATTTTTTTTTTTTTTTGATCC [CCTAG]	0.398 ± 0.022	0.294 ± 0.027
TTTTTTGCGCATCATGATGATTTTTTTTTTTTTTTATGCC [CCGTA]	0.436 ± 0.0052	0.319 ± 0.02
